Laboratory results as given in the supplement of paper PMC9112550, “Optimization of the antimicrobial peptide Bac7 by deep mutational scanning” (BMC Biology, 2022).

Each sequence was assayed on Escherichia coli TOP10 (assay: shrunken log2 fold change of peptide-encoding DNA abundance (4.5 h post-induction vs induction); higher = less antimicrobial activity (less host growth inhibition)). Conditions: time post-induction: 4.5 h; library: site-saturation at positions 5, 18, 19, 20.
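Also: peptides expressed intracellularly from a pBAD plasmid library in pooled LB shake-flask culture, induced with 0.3% L-arabinose, DNA abundance read by NGS, three biological replicates, DESeq2 with apeglm shrinkage.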

Sequence	shrunken log2 fold change
RRIRNRPPRLPRPRPRPTKEPRP	-0.0307
RRIRPRPPRLPRPRPRPVQQPRP	0.378
RRIRIRPPRLPRPRPRPTPPPRP	0.464
RRIRFRPPRLPRPRPRPEDDPRP	-0.18
RRIRQRPPRLPRPRPRPQTIPRP	-0.16
RRIRLRPPRLPRPRPRPLLLPRP	-0.00929
RRIRERPPRLPRPRPRPSVDPRP	-0.318
RRIRPRPPRLPRPRPRPSQHPRP	-0.278
RRIRIRPPRLPRPRPRPQDMPRP	-0.0502
RRIRKRPPRLPRPRPRPSIYPRP	-0.353
RRIRCRPPRLPRPRPRPTFQPRP	-0.0555
RRIRHRPPRLPRPRPRPCAAPRP	-0.195
RRIRWRPPRLPRPRPRPQEMPRP	-0.0845
RRIRNRPPRLPRPRPRPVPVPRP	-0.0667
RRIRQRPPRLPRPRPRPQRWPRP	0.178
RRIRSRPPRLPRPRPRPTKFPRP	0.0549
RRIRGRPPRLPRPRPRPFRPPRP	0.021
RRIRGRPPRLPRPRPRPGVRPRP	0.659
RRIRARPPRLPRPRPRPGCAPRP	0.947
RRIRNRPPRLPRPRPRPIAGPRP	-0.0235
RRIRFRPPRLPRPRPRPSFFPRP	-0.0473
RRIRWRPPRLPRPRPRPMCPPRP	-0.232

Sequence	shrunken log2 fold change
RRIRPRPPRLPRPRPRPAYQPRP	-0.0181
RRIRNRPPRLPRPRPRPNVDPRP	0.112
RRIRKRPPRLPRPRPRPLVVPRP	-0.0832
RRIRQRPPRLPRPRPRPSFKPRP	-0.525
RRIRLRPPRLPRPRPRPREWPRP	-0.0315
RRIRCRPPRLPRPRPRPMGFPRP	-0.103
RRIRCRPPRLPRPRPRPSEGPRP	0.141
RRIRPRPPRLPRPRPRPTNFPRP	0.221
RRIRMRPPRLPRPRPRPVVRPRP	0.0837
RRIRWRPPRLPRPRPRPDGNPRP	0.276
RRIRPRPPRLPRPRPRPFWYPRP	-0.525
RRIRSRPPRLPRPRPRPYPCPRP	0.0185
RRIRIRPPRLPRPRPRPMWKPRP	-0.0693
RRIRERPPRLPRPRPRPAQSPRP	0.0517
RRIRHRPPRLPRPRPRPHDAPRP	-0.357
RRIRSRPPRLPRPRPRPWANPRP	0.0508
RRIRGRPPRLPRPRPRPTIKPRP	0.48
RRIRIRPPRLPRPRPRPPFFPRP	0.41
RRIRGRPPRLPRPRPRPPHNPRP	0.585
RRIRGRPPRLPRPRPRPGADPRP	1.48
RRIRDRPPRLPRPRPRPCFWPRP	0.612
RRIRCRPPRLPRPRPRPSHYPRP	-0.349

Sequence	shrunken log2 fold change
RRIRPRPPRLPRPRPRPPTHPRP	0.317
RRIRWRPPRLPRPRPRPEYNPRP	0.195
RRIRYRPPRLPRPRPRPTKMPRP	-0.22
RRIRMRPPRLPRPRPRPDPKPRP	-0.000946
RRIRLRPPRLPRPRPRPFMGPRP	-0.141
RRIRGRPPRLPRPRPRPSMLPRP	0.58
RRIRVRPPRLPRPRPRPCSFPRP	0.0114
RRIRNRPPRLPRPRPRPRVLPRP	0.0234
RRIRERPPRLPRPRPRPYPQPRP	-0.898
RRIRYRPPRLPRPRPRPNWVPRP	-0.443
RRIRFRPPRLPRPRPRPELIPRP	-0.308
RRIRIRPPRLPRPRPRPWDEPRP	-0.156
RRIRARPPRLPRPRPRPWWRPRP	0.0229
RRIRWRPPRLPRPRPRPPCPPRP	0.138
RRIRLRPPRLPRPRPRPYAPPRP	-0.329
RRIRERPPRLPRPRPRPTTWPRP	0.0447
RRIRIRPPRLPRPRPRPYELPRP	-0.0687
RRIRHRPPRLPRPRPRPYVIPRP	-0.00839
RRIRKRPPRLPRPRPRPKGRPRP	0.262
RRIRERPPRLPRPRPRPLLDPRP	-0.0911
RRIRHRPPRLPRPRPRPPFLPRP	-0.251
RRIRCRPPRLPRPRPRPDCAPRP	0.515

Sequence	shrunken log2 fold change
RRIRWRPPRLPRPRPRPQRDPRP	-0.0245
RRIRARPPRLPRPRPRPYTSPRP	0.0229
RRIRIRPPRLPRPRPRPKVPPRP	0.167
RRIRTRPPRLPRPRPRPDMYPRP	-0.235
RRIRHRPPRLPRPRPRPTIEPRP	-0.0518
RRIRKRPPRLPRPRPRPAYGPRP	0.397
RRIRIRPPRLPRPRPRPFLTPRP	-0.736
RRIRMRPPRLPRPRPRPGYVPRP	-0.118
RRIRFRPPRLPRPRPRPDQKPRP	-0.0128
RRIRFRPPRLPRPRPRPIGKPRP	-0.0112
RRIRGRPPRLPRPRPRPFDQPRP	0.2
RRIRQRPPRLPRPRPRPQEHPRP	-0.942
RRIRIRPPRLPRPRPRPFISPRP	-1.43
RRIRTRPPRLPRPRPRPYSNPRP	-0.941
RRIRKRPPRLPRPRPRPGQDPRP	0.37
RRIRSRPPRLPRPRPRPHSEPRP	-0.0351
RRIRHRPPRLPRPRPRPPITPRP	-0.346
RRIRARPPRLPRPRPRPNNWPRP	0.0825
RRIRLRPPRLPRPRPRPEIAPRP	0.167
RRIRNRPPRLPRPRPRPNSNPRP	-0.744
RRIRNRPPRLPRPRPRPEGVPRP	0.205
RRIRPRPPRLPRPRPRPREQPRP	0.00917

Sequence	shrunken log2 fold change
RRIRHRPPRLPRPRPRPSVDPRP	0.0776
RRIRPRPPRLPRPRPRPYVTPRP	-0.239
RRIRPRPPRLPRPRPRPTYPPRP	-0.137
RRIRSRPPRLPRPRPRPSLCPRP	-0.0295
RRIRCRPPRLPRPRPRPYWLPRP	-0.669
RRIRMRPPRLPRPRPRPRNQPRP	0.484
RRIRHRPPRLPRPRPRPIQLPRP	0.128
RRIRCRPPRLPRPRPRPKATPRP	0.0985
RRIRFRPPRLPRPRPRPPFRPRP	1.84
RRIRERPPRLPRPRPRPLYGPRP	-0.136
RRIRPRPPRLPRPRPRPWDDPRP	-0.144
RRIRVRPPRLPRPRPRPWVEPRP	-0.0944
RRIRDRPPRLPRPRPRPDAWPRP	0.816
RRIRPRPPRLPRPRPRPMKMPRP	-0.148
RRIRCRPPRLPRPRPRPMVKPRP	-0.228
RRIRPRPPRLPRPRPRPHCPPRP	0.0157
RRIRNRPPRLPRPRPRPMHHPRP	-0.653
RRIRKRPPRLPRPRPRPFLMPRP	0.043
RRIRHRPPRLPRPRPRPIFPPRP	0.033
RRIRHRPPRLPRPRPRPGETPRP	-0.00149
RRIRLRPPRLPRPRPRPMCGPRP	0.0137
